Publication PMC5979025

What was measured:
[1] = target: C-reactive protein (pCRP) (Homo sapiens) (UniProt P02741); conditions: cited from earlier work
[2] = target: T1, C-reactive protein (pentameric, biotin-labeled) (Homo sapiens), P02741; assay: ELISA; conditions: pCRP immobilized on hydrophobic surface, biotin-labeled solution pCRP, calcium required; remark: other sources report otherwise
T1 chain: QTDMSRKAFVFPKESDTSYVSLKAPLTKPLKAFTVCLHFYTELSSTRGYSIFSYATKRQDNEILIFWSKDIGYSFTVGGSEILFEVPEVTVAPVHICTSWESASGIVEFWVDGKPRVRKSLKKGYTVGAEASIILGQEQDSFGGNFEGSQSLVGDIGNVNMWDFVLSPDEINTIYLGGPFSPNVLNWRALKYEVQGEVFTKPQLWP

Row | Molecule | Kd [1] | Kd [2]
1 | C-reactive protein (pCRP) (from UniProt P02741) | 20 µM | –
2 | C-reactive protein (surface-immobilized intermediate, CRPi), P02741 (protein) QTDMSRKAFVFPKESDTSYVSLKAPLTKPLKAFTVCLHFYTELSSTRGYSIFSYATKRQDNEILIFWSKDIGYSFTVGGSEILFEVPEVTVAPVHICTSWESASGIVEFWVDGKPRVRKSLKKGYTVGAEASIILGQEQDSFGGNFEGSQSLVGDIGNVNMWDFVLSPDEINTIYLGGPFSPNVLNWRALKYEVQGEVFTKPQLWP | – | 0.0015 µM
